Assay results reported in publication PMC7352350, “Molecular Interactions Stabilizing the Promatrix Metalloprotease-9·Serglycin Heteromer” (International Journal of Molecular Sciences, 2020).

B1: recombinant proMMP-9 lacking the HPX domain (domain or fragment, human, UniProt P14780 20-515, looked up)
chain: APRQRQSTLVLFPGDLRTNLTDRQLAEEYLYRYGYTRVAEMRGESKSLGPALLLLQKQLSLPETGELDSATLKAMRTPRCGVPDLGRFQTFEGDLKWHHHNITYWIQNYSEDLPRAVIDDAFARAFALWSAVTPLTFTRVYSRDADIVIQFGVAEHGDGYPFDGKDGLLAHAFPPGPGIQGDAHFDDDELWSLGKGVVVPTRFGNADGAACHFPFIFEGRSYSACTTDGRSDGLPWCSTTANYDTDDRFGFCPSERLYTQDGNADGKPCQFPFIFQGQSYSACTTDGRSDGYRWCATTANYDRDKLFGFCPTRADSTVMGGNSAGELCVFPFTFLGKEYSTCTSEGRGDGRLWCATTSNFDSDKKWGFCPDQGYSLFLVAAHEFGHALGLDHSSVPEALMYPMYRFTEGPPLHKDDVNGIRHLYGPRPEPEPRPPTTTTPQPTAPPTVCPTGPPTVHPSERPTAGPTGPPSAGPTGPPTAGPSTATTVPLSPVDDA
notes: MMP-9 proenzyme, human; stop codon behind the codon for A515; the mature proenzyme starts at 20; also called rpMMP-9ΔHPX; proMMP-9ΔHPX; source: Sf9, baculovirus, purified (gelatin-Sepharose)
B2: SG peptide 54 (peptide, UniProt P10124 134-153, looked up)
peptide: RSLDRNLPSDSQDLGQHGLE
notes: serglycin core protein, spot 54 of the 20-mer walk with two-residue shift; numbers count on: the mature protein (1-131); source: synthetic peptide on a cellulose membrane
B3: SG peptide 21 with D46 changed to A (peptide, UniProt P10124 68-87, looked up)
peptide: PRLRTALFPKTRIQDLNRIF
notes: serglycin core protein, mutated 20-mer of spot 21; numbers count on: the mature protein (1-131); source: synthetic peptide on a cellulose membrane
B4: HPX peptide 69 with Y672 mutated (peptide, UniProt P14780 657-676, looked up)
peptide: VPLDTHDVFQYREKAAFCQD
notes: MMP-9 HPX domain, mutated 20-mer of spot 69; source: synthetic peptide on a cellulose membrane
B5: SG peptide 23 with D46 changed to A (peptide, UniProt P10124 72-91, looked up)
peptide: TALFPKTRIQDLNRIFPLSE
notes: serglycin core protein, mutated 20-mer of spot 23; numbers count on: the mature protein (1-131); source: synthetic peptide on a cellulose membrane
B6: SG peptide 53 (peptide, UniProt P10124 132-151, looked up)
peptide: NLRSLDRNLPSDSQDLGQHG
notes: serglycin core protein, spot 53 of the 20-mer walk with two-residue shift; numbers count on: the mature protein (1-131); source: synthetic peptide on a cellulose membrane
B7: recombinant human His-tagged serglycin (natural protein, UniProt P10124 28-158, looked up)
chain: YPTRRARYQWVRCNPDSNSANCLEEKGPMFELLPGESNKIPRLRTDLFPKTRIQDLNRIFPLSEDYSGSGFGSGSGSGSGSGSGFLTEMEQDYQLVDESDAFHDNLRSLDRNLPSDSQDLGQHGLEEDFML
notes: serglycin core protein, human, the tag stands instead of the signal peptide; no GAG chains; numbers count on: the mature protein (1-131); also called Ht-SG; SG core protein; source: bought: ProSpec (produced in Escherichia coli)
B8: HPX peptide 41 with D609 mutated (peptide, UniProt P14780 601-620, looked up)
peptide: LDKLGLGAAVAQVTGALRSG
notes: MMP-9 HPX domain, mutated 20-mer of spot 41; source: synthetic peptide on a cellulose membrane
B9: HPX peptide 69 with F673 mutated (peptide, UniProt P14780 657-676, looked up)
peptide: VPLDTHDVFQYREKAYGCQD
notes: as for B4
B10: proMMP-9 purified from THP-1 cells (enzyme, human (endogenous in THP-1), UniProt P14780 20-707, looked up)
chain: APRQRQSTLVLFPGDLRTNLTDRQLAEEYLYRYGYTRVAEMRGESKSLGPALLLLQKQLSLPETGELDSATLKAMRTPRCGVPDLGRFQTFEGDLKWHHHNITYWIQNYSEDLPRAVIDDAFARAFALWSAVTPLTFTRVYSRDADIVIQFGVAEHGDGYPFDGKDGLLAHAFPPGPGIQGDAHFDDDELWSLGKGVVVPTRFGNADGAACHFPFIFEGRSYSACTTDGRSDGLPWCSTTANYDTDDRFGFCPSERLYTQDGNADGKPCQFPFIFQGQSYSACTTDGRSDGYRWCATTANYDRDKLFGFCPTRADSTVMGGNSAGELCVFPFTFLGKEYSTCTSEGRGDGRLWCATTSNFDSDKKWGFCPDQGYSLFLVAAHEFGHALGLDHSSVPEALMYPMYRFTEGPPLHKDDVNGIRHLYGPRPEPEPRPPTTTTPQPTAPPTVCPTGPPTVHPSERPTAGPTGPPSAGPTGPPTAGPSTATTVPLSPVDDACNVNIFDAIAEIGNQLYLFKDGKYWRFSEGRGSRPQGPFLIADKWPALPRKLDSVFEERLSKKLFFFSGRQVWVYTGASVLGPRRLDKLGLGADVAQVTGALRSGRGKMLLFSGRRLWRFDVKAQMVDPRSASEVDRMFPGVPLDTHDVFQYREKAYFCQDRFYWRVSSRSELNQVDQVGYVTYDILQCPED
notes: matrix metalloprotease-9 proenzyme, human; pre domain cleaved off, the mature proenzyme is 20-707; the preparation holds a small amount of TIMP-1; monomer and reduction-sensitive homomultimer; also called pMMP-9; promatrix metalloprotease-9; source: purified from conditioned medium of PMA-stimulated THP-1 cells (Q-Sepharose pass-through, gelatin-Sepharose)
B11: recombinant full-length proMMP-9 (enzyme, human, UniProt P14780 20-707, looked up)
chain: B10 chain
notes: matrix metalloprotease-9 proenzyme, human, full-length; pre domain cleaved off, the mature proenzyme is 20-707; also called rpMMP-9; source: Sf9, baculovirus, purified (gelatin-Sepharose)

Key:
[1] = biological target: the molecule itself; assay: SDS-PAGE, Western blotting and gelatin zymography under non-reducing and reducing conditions; purified preparations; SDS-stable, reduction-sensitive homomultimer beside the monomer
[2] = biological target: B10; assay: peptide or protein array; 20-mer walk of the SG core protein on cellulose, two-residue shift; 8.8 ul of 11.2 ug/mL proMMP-9 in 10 mL blocking buffer, 1-4 h, room temperature; antibody against MMP-9; conditions: both partners purified
[3] = biological target: B10; assay: peptide or protein array; mutated SG 20-mer peptides on cellulose, incubated with pMMP-9; antibody against MMP-9; conditions: both partners purified
[4] = biological target: B7; assay: peptide or protein array; mutated FnII and HPX 20-mer peptides on cellulose, incubated with Ht-SG; antibodies against SG; conditions: both partners purified
[5] = biological target: B10; assay: far-Western, overlay or dot blot; slot blot: 200 ng Ht-SG on a polyvinyl difluoride membrane, blocked with milk powder, incubated with pMMP-9 for 2.5 h at room temperature; detected with antibody against proMMP-9; conditions: both partners purified

## B1
[1]
  binding result: binds

## B2
[2]
  binding result: binds

## B3
[3]
  binding result: binds

## B4
[4]
  binding result: binds

## B5
[3]
  binding result: binds

## B6
[2]
  binding result: binds

## B7
[5]
  binding result: binds

## B8
[4]
  binding result: binds

## B9
[4]
  binding result: binds

## B10
[1]
  binding result: binds

## B11
[1]
  binding result: binds
